Blank lines part the entries; values can stand above or below the sequence they belong to.
Key:
HLA-A*02:01 [1] = assay: IEDB peptide-MHC binding, purified MHC/competitive/fluorescence; filed as Kd, often an IC50 or EC50 that approximates it; ≥ and ≤ were set here for values at or beyond the usual limits of such assays
HLA-A*03:01 [2] = assay: as above
HLA-A*24:03 = assay: as above
HLA-A*26:01 [3] = assay: as above
HLA-A*29:02 [4] = assay: as above
HLA-A*68:02 [5] = assay: as above; conditions: source organism: Bos taurus
HLA-A*69:01 [6] = assay: as above; conditions: source organism: Bos taurus
HLA-B*15:17 = assay: as above
HLA-B*18:01 [7] = assay: as above
HLA-B*27:03 = assay: as above
HLA-B*39:01 [8] = assay: as above
HLA-B*46:01 [9] = assay: as above
HLA-B*51:01 = assay: as above
HLA-B*57:01 [10] = assay: as above
HLA-A*02:03 [11] = assay: as above; conditions: source organism: Human immunodeficiency virus 1
HLA-A*30:01 = assay: as above; conditions: source organism: Human immunodeficiency virus 1
HLA-A*01:01 [12] = assay: IEDB peptide-MHC binding, purified MHC/direct/fluorescence; filed as Kd, often an IC50 or EC50 that approximates it; ≥ and ≤ were set here for values at or beyond the usual limits of such assays
HLA-A*03:01 [13] = assay: as above
HLA-A*11:01 = assay: as above
HLA-A*31:01 = assay: as above
HLA-B*07:02 = assay: as above
HLA-B*15:01 = assay: as above
HLA-B*27:05 = assay: as above
HLA-B*39:01 [14] = assay: as above
HLA-B*44:02 = assay: as above
HLA-B*46:01 [15] = assay: as above
HLA-B*57:01 [16] = assay: as above
HLA-B*58:01 = assay: as above
HLA-A*01:01 [17] = assay: IEDB peptide-MHC binding, purified MHC/competitive/radioactivity; filed as Kd, often an IC50 or EC50 that approximates it; ≥ and ≤ were set here for values at or beyond the usual limits of such assays; conditions: source organism: Dengue virus 1 Brazil/97-11/1997
HLA-A*26:01 [18] = assay: as above; conditions: source organism: Dengue virus 1 Brazil/97-11/1997
HLA-A*68:02 [19] = assay: as above; conditions: source organism: Dengue virus 1 Brazil/97-11/1997
HLA-B*57:01 [20] = assay: as above
HLA-A*02:01 [21] = assay: IEDB peptide-MHC binding, purified MHC/direct/fluorescence; filed as Kd, often an IC50 or EC50 that approximates it; ≥ and ≤ were set here for values at or beyond the usual limits of such assays
HLA-A*29:02 [22] = assay: as above
HLA-A*69:01 [23] = assay: as above
HLA-B*18:01 [24] = assay: as above; conditions: source organism: Mycobacterium tuberculosis
HLA-B*15:09 = assay: as above
HLA-B*08:01 = assay: as above; conditions: source organism: Influenza A virus (A/camel/Mongolia/1982(H1N1))
HLA-B*40:01 = assay: as above; conditions: source organism: Influenza A virus (A/camel/Mongolia/1982(H1N1))
HLA-A*02:03 [25] = assay: as above; conditions: source organism: Orthohantavirus negraense
HLA-A*26:01 [26] = assay: as above; conditions: source organism: Orthohantavirus negraense
[27] = source organism: Tai Forest virus - Cote d'Ivoire, Cote d'Ivoire, 1994
[28] = source organism: Tai Forest ebolavirus
[29] = source organism: Ephydatia fluviatilis
[30] = source organism: Dengue virus 1 Brazil/97-11/1997
[31] = source organism: Mycobacterium tuberculosis
[32] = source organism: West Nile virus
[33] = source organism: Influenza A virus (A/camel/Mongolia/1982(H1N1))
[34] = source organism: Orthohantavirus negraense

Kd (HLA-A*02:01 [1]; source organism: Bos taurus): 15.1 nM
Kd (HLA-A*03:01 [2]; source organism: Bos taurus): ≥ 20 µM
Kd (HLA-A*24:03; source organism: Bos taurus): ≥ 20 µM
Kd (HLA-A*26:01 [3]; source organism: Bos taurus): ≥ 20 µM
Kd (HLA-A*29:02 [4]; source organism: Bos taurus): ≥ 20 µM
Kd (HLA-A*68:02 [5]): ≥ 20 µM
Kd (HLA-A*69:01 [6]): ≥ 20 µM
Kd (HLA-B*15:17; source organism: Bos taurus): ≥ 20 µM
Kd (HLA-B*18:01 [7]; source organism: Bos taurus): ≥ 20 µM
Kd (HLA-B*27:03; source organism: Bos taurus): ≥ 20 µM
Kd (HLA-B*39:01 [8]; source organism: Bos taurus): ≥ 20 µM
Kd (HLA-B*46:01 [9]; source organism: Bos taurus): ≥ 20 µM
Kd (HLA-B*51:01; source organism: Bos taurus): ≥ 20 µM
Kd (HLA-B*57:01 [10]; source organism: Bos taurus): ≥ 20 µM
Sequence: KLGEGFKSL

Sequence: IWWEQYMQY
Kd (HLA-A*29:02 [4]; source organism: Shigella boydii): ≤ 0.0001 µM

Sequence: EKLKSLYNTV
Kd (HLA-A*02:03 [11]): 643 nM
Kd (HLA-A*30:01): 175 nM
Kd (HLA-B*39:01 [8]; source organism: Human immunodeficiency virus 1): 2.81 µM

Sequence: FAEGVIAFL
Kd (HLA-A*01:01 [12]; [27]): ≥ 20 µM
Kd (HLA-A*03:01 [13]; [27]): ≥ 20 µM
Kd (HLA-A*11:01; [27]): ≥ 20 µM
Kd (HLA-A*31:01; [27]): ≥ 20 µM
Kd (HLA-B*07:02; [27]): ≥ 20 µM
Kd (HLA-B*15:01; [27]): ≥ 20 µM
Kd (HLA-B*27:05; [27]): ≥ 20 µM
Kd (HLA-B*39:01 [14]; [27]): 539 nM
Kd (HLA-B*44:02; [27]): ≥ 20 µM
Kd (HLA-B*46:01 [15]; [27]): ≥ 20 µM
Kd (HLA-B*57:01 [16]; [27]): ≥ 20 µM
Kd (HLA-B*58:01; [27]): ≥ 20 µM
Kd (HLA-A*26:01 [3]; [28]): ≥ 20 µM
Kd (HLA-B*18:01 [7]; [28]): ≥ 20 µM
Kd (HLA-B*27:03; [28]): ≥ 20 µM

Kd (HLA-A*02:01 [1]; [29]): 41 nM
Kd (HLA-A*03:01 [2]; [29]): ≥ 20 µM
Kd (HLA-A*24:03; [29]): ≥ 20 µM
Kd (HLA-A*26:01 [3]; [29]): ≥ 20 µM
Kd (HLA-A*29:02 [4]; [29]): ≥ 20 µM
Kd (HLA-B*15:17; [29]): ≥ 20 µM
Kd (HLA-B*18:01 [7]; [29]): ≥ 20 µM
Kd (HLA-B*27:03; [29]): ≥ 20 µM
Kd (HLA-B*39:01 [8]; [29]): ≥ 20 µM
Kd (HLA-B*51:01; [29]): ≥ 20 µM
Kd (HLA-B*57:01 [10]; [29]): ≥ 20 µM
Sequence: TLKPGTMSV

Sequence: TTSGTYVSAI
Kd (HLA-A*01:01 [17]): ≥ 70.4 µM
Kd (HLA-A*26:01 [18]): 17 µM
Kd (HLA-A*68:02 [19]): 20.5 nM
Kd (HLA-B*57:01 [20]; [30]): 179 nM

Sequence: EKAAWGVAL
Kd (HLA-A*01:01 [12]; [31]): ≥ 20 µM
Kd (HLA-A*02:01 [21]; [31]): ≥ 20 µM
Kd (HLA-A*03:01 [13]; [31]): ≥ 20 µM
Kd (HLA-A*11:01; [31]): ≥ 20 µM
Kd (HLA-A*29:02 [22]; [31]): ≥ 20 µM
Kd (HLA-A*31:01; [31]): ≥ 20 µM
Kd (HLA-A*69:01 [23]; [31]): ≥ 20 µM
Kd (HLA-B*15:01; [31]): ≥ 20 µM
Kd (HLA-B*18:01 [24]): ≥ 20 µM
Kd (HLA-B*27:05; [31]): ≥ 20 µM
Kd (HLA-B*39:01 [14]; [31]): 52 nM
Kd (HLA-B*44:02; [31]): ≥ 20 µM
Kd (HLA-B*46:01 [15]; [31]): ≥ 20 µM
Kd (HLA-B*57:01 [16]; [31]): ≥ 20 µM

Sequence: GRGPIRFVL
Kd (HLA-A*01:01 [12]; [32]): ≥ 20 µM
Kd (HLA-A*02:01 [21]; [32]): ≥ 20 µM
Kd (HLA-A*03:01 [13]; [32]): ≥ 20 µM
Kd (HLA-A*11:01; [32]): ≥ 20 µM
Kd (HLA-A*29:02 [22]; [32]): ≥ 20 µM
Kd (HLA-A*31:01; [32]): ≥ 20 µM
Kd (HLA-A*69:01 [23]; [32]): ≥ 20 µM
Kd (HLA-B*07:02; [32]): ≥ 20 µM
Kd (HLA-B*15:01; [32]): ≥ 20 µM
Kd (HLA-B*15:09; [32]): ≥ 20 µM
Kd (HLA-B*44:02; [32]): ≥ 20 µM
Kd (HLA-B*46:01 [15]; [32]): ≥ 20 µM
Kd (HLA-B*57:01 [16]; [32]): ≥ 20 µM
Kd (HLA-B*58:01; [32]): ≥ 20 µM

Sequence: HIPEVCLKW
Kd (HLA-A*01:01 [12]; [33]): ≥ 20 µM
Kd (HLA-A*02:01 [21]; [33]): ≥ 20 µM
Kd (HLA-A*03:01 [13]; [33]): ≥ 20 µM
Kd (HLA-A*31:01; [33]): ≥ 20 µM
Kd (HLA-A*69:01 [23]; [33]): ≥ 20 µM
Kd (HLA-B*07:02; [33]): ≥ 20 µM
Kd (HLA-B*08:01): ≥ 20 µM
Kd (HLA-B*15:01; [33]): ≥ 20 µM
Kd (HLA-B*15:09; source organism: Influenza A virus H3N2): ≥ 20 µM
Kd (HLA-B*27:05; [33]): ≥ 20 µM
Kd (HLA-B*40:01): ≥ 20 µM
Kd (HLA-B*44:02; [33]): ≥ 20 µM
Kd (HLA-B*46:01 [15]; [33]): ≥ 20 µM
Kd (HLA-B*58:01; [33]): 0.121 µM

Sequence: STSLSMTCIA
Kd (HLA-B*57:01 [20]; [30]): 2080 nM

Sequence: YRKEQQNAV
Kd (HLA-B*39:01 [14]; source organism: Influenza A virus (A/Belfast/53582/2004(H3N?))): 620 nM

Sequence: NIYETEFFM
Kd (HLA-A*02:03 [25]): ≥ 20 µM
Kd (HLA-A*03:01 [13]; [34]): ≥ 20 µM
Kd (HLA-A*26:01 [26]): 1110 nM
Kd (HLA-B*15:17; [34]): ≥ 20 µM
Kd (HLA-B*18:01 [7]; [34]): ≥ 20 µM
Kd (HLA-B*27:03; [34]): ≥ 20 µM
Kd (HLA-B*39:01 [8]; [34]): ≥ 20 µM
Kd (HLA-B*46:01 [9]; [34]): ≥ 20 µM
Kd (HLA-B*51:01; [34]): ≥ 20 µM
Kd (HLA-B*57:01 [10]; [34]): ≥ 20 µM

Sequence: PTAGVLARW
Kd (HLA-B*57:01 [20]; source organism: Dengue virus 3 Martinique/1243/1999): 29.7 nM
